# From patent US9675625B2, “Medicament comprising recombinant antibody against chemokine receptor CCR4” (KYOWA HAKKO KIRIN CO., LTD., priority 2003, dated 2017)
# B1: KM 2760: anti-CCR4 human chimeric antibody KM 2760 (FERM BP-7054, WO 01/64754) (antibody, V domains shown)
# VH: EVQLVESGGDLMKPGGSLKISCAASGFIFSNYGMSWVRQTPDMRLEWVATISSASTYSYYPDSVKGRFTISRDNAENSLYLQMNSLRSEDTGIYYCGRHSDGNFAFGYWGRGTLVTVSA
# VL: DVLMTQTPLSLPVSLGDQASISCRSSRNIVHINGDTYLEWYLQRPGQSPKLLIYKVSNRFSGVPDRFSGSGSGTDFTLKISRVEAEDLGVYYCFQGSLLPWTFGGGTRLEIRR
# Key:
# CCRF-CEM cells [1] = experiment: antitumor effect of KM 2760 and etoposide in combination, CCRF-CEM cells grafted in nude mouse; type: in vivo, Balb/c nude mouse; conditions: Day 7; KM 2760 800 μg per mouse Day 0 and Day 4; VP-16 10 mg/kg Day 0 to Day 4; tail vein
# Procedure: CCRF-CEM cells (human T cell leukemia cell line) were suspended in RPMI 1640 medium (Gibco BRL) at a concentration of 2×10^8 cells/mL, and 100 μL of the suspension was grafted into the ventral skin of Balb/c nude mice (Nippon Crea, male). On Day 17 after the cell grafting, a diameter of a tumor was measured with calipers, and a tumor volume was calculated using formula 2 in Example 2.
# Individuals having the tumor volume within the range of from 121 to 348 mm^3 (on average 195 mm^3) were selected, and grouped such that the average tumor volume to be almost the same. Each of the following agents A to D was then administered to the mice. Incidentally, the grouping day was defined as Day 0.
# B. Group of administering KM 2760 alone: 800 μg of KM2760 was administered per mouse on Day 0 and Day 4.
# C. Group of administering etoposide (hereinafter referred to as VP-16; Lastet injection, Nippon Kayaku Co., Ltd.) alone: 10 mg/kg of VP-16 was administered per mouse for 5 days from Day 0 to Day 4. […]
# The experiment was conducted with groups each consisting of five mice. […] On Day 7, the tumor volume was measured. The antitumor effect was evaluated by comparing average values of a tumor volume change (V/V0) on Day 7 when the tumor volume on Day 0 in each group was defined as V0.
# CCR4/EL4 cells = experiment: in vitro cytotoxic activity (ADCC) of KM 2760 with cytokine-stimulated effector cells, LDH release; type: cell-based, mouse; conditions: KM 2760 1 or 100 ng/mL, effector:target 15:1, 37° C. 4 hours, no cytokine, FIG. 1
# Procedure: An effect of using anti-CCR4 human chimeric antibody KM 2760 (FERM BP-7054, WO 01/64754) and a cytokine in combination in an in vitro cytotoxic activity was measured by the following method.
# A vein blood (50 mL) was collected from a healthy person, 0.5 mL of heparin sodium (manufactured by Shimizu Seiyaku K.K.) was added, and they were gently mixed. A mononuclear cell layer was separated from using a MONO-POLY separation solution (manufactured by Dainippon Pharmaceutical Co., Ltd.) according to the attached manual. […]
# The target cell suspension (50 μL) prepared in the above (c) was added to each well of a 96-well U-shaped bottom plate containing the effector cells stimulated with the cytokine in the above (b) such that the concentration became 1×10^4 cells/well. […] After the reaction, the plate was subjected to centrifugation, and a lactic acid dehydrogenase (hereinafter referred to as LDH) activity in the supernatant was measured by obtaining an absorbance data with CytoTox96 Non-Radioactive Cytotoxic activity Assay (manufactured by Promega) according to the attached manual. […] Cytotoxic activity (%)=[(absorbance of a specimen)−(absorbance of effector cell spontaneous release)−(absorbance of target cell spontaneous release)]/[(absorbance of target cell total release)−(absorbance of target cell spontaneous release)]×100 (Formula 1)
# CCRF-CEM cells [2] = experiment: antitumor effect of KM 2760 and cyclophosphamide in combination, CCRF-CEM cells grafted in nude mouse; type: in vivo, Balb/c nude mouse; conditions: Day 4; KM 2760 800 μg per mouse Day 0 and Day 4; CPA 65 mg/kg Day 0; tail vein
# Procedure: CCRF-CEM cells (human T cell leukemia cell line) were suspended in RPMI 1640 medium (Gibco BRL) at a concentration of 2×10^8 cells/mL, and 100 μL of the suspension was grafted intradermally in the right flank of Balb/c nude mice (Nippon Crea, male). On Day 18 after the cell grafting, a diameter of a tumor was measured with calipers, and a tumor volume was calculated using formula 2 in Example 2.
# Individuals having the tumor volume within the range of 116 to 349 mm^3 (on average 219 mm^3) were selected, and grouped such that the average tumor volume to be almost the same. Each of the following agent A to D was administered to the mice. Incidentally, the grouping day was defined as Day 0.
# The experiment was conducted with groups each consisting of five mice. Each of the agents was diluted with a physiological saline (Otsuka Seiyaku), and the diluent was administered from the tail vein. On Day 4, the tumor volume was measured. The antitumor effect was evaluated by comparing an average values of a tumor volume change (V/V0) on each measurement day when the tumor volume on Day 0 in each group was defined as V0.
# CCRF-CEM cells [3] = experiment: antitumor effect of KM 2760 and vincristine in combination, CCRF-CEM cells grafted in nude mouse; type: in vivo, Balb/c nude mouse; conditions: Day 10; KM 2760 800 μg per mouse Day 0 and Day 4; VCR 0.55 mg/kg Day 0; tail vein
molecule,measurement,setting,value
B1,T/C (V/V0 of group divided by V/V0 of negative control group),CCRF-CEM cells [1],0.65
same,cytotoxic activity,CCR4/EL4 cells,increased in a concentration-dependent manner
same,T/C (V/V0 of group divided by V/V0 of negative control group),CCRF-CEM cells [2],0.80
same,T/C (V/V0 of group divided by V/V0 of negative control group),CCRF-CEM cells [3],0.43
